Results on 5 molecules are retold here after paper PMC10397247.

Assay [1] concerns the target T1, P5SC2.
T1 chain: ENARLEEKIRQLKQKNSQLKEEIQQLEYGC
The experiment in a line: two-hybrid library CC1.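 Further: natural log of median RNA to DNA barcode read ratio; higher means stronger binding.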

Assay [2] concerns the target T2, P5mS.
T2 chain: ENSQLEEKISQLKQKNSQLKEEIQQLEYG
The experiment in a line: two-hybrid library CC1.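 Further: natural log of median RNA to DNA barcode read ratio; higher means stronger binding.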 The conditions noted are these: mean of both orientations.

Assay [3] has as its target T3, P6SC1.
T3 chain: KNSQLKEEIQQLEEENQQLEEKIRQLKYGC
The experiment in a line: two-hybrid library CC1.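 Further: natural log of median RNA to DNA barcode read ratio; higher means stronger binding.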 The conditions noted are these: mean of both orientations.

The target in assay [4] is T4, P6SC2.
T4 chain: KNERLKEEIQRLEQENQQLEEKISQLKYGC
Nature of the assay: two-hybrid library CC1.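 Further: natural log of median RNA to DNA barcode read ratio; higher means stronger binding.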 The conditions noted are these: mean of both orientations.

Assay [5] has as its target T5, P6.
T5 chain: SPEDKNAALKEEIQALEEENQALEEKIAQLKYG
The experiment in a line: two-hybrid library CC1. The conditions noted are these: mean of both orientations.

Assay [6] addresses T6, P6mS.
T6 chain: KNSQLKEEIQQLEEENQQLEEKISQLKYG
The experiment in a line: two-hybrid library CC1. The conditions noted are these: mean of both orientations.

The target of assay [7] is T7, P7.
T7 chain: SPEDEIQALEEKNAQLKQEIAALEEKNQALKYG
The experiment in a line: two-hybrid library CC1. The conditions noted are these: mean of both orientations.

Assay [8] has as its target T8, P7mS.
T8 chain: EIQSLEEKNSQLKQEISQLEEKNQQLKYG
Nature of the assay: two-hybrid library CC1. The conditions noted are these: mean of both orientations.

The target in assay [9] is T9, P8.
T9 chain: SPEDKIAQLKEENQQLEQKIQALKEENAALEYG
The experiment in a line: two-hybrid library CC1. The conditions noted are these: mean of both orientations.

For assay [10], the target named is T10, P8mS.
T10 chain: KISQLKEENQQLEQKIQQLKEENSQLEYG
Nature of the assay: two-hybrid library CC1. The conditions noted are these: mean of both orientations.

Assay [11] concerns the target T11, P9.
T11 chain: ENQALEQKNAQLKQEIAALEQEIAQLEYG
The experiment in a line: two-hybrid library CC1. The conditions noted are these: mean of both orientations.

For assay [12], the target named is T12, 4H2687-AA.
T12 chain: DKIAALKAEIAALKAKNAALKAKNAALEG
The experiment in a line: two-hybrid library CCmax.

Assay [13] concerns the target T13, 4H2705-AA.
T13 chain: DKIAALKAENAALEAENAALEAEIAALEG
Nature of the assay: two-hybrid library CCmax. The conditions noted are these: mean of both orientations.

In assay [14] the target is T14, 4H2758-AA.
T14 chain: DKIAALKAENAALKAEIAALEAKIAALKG
Nature of the assay: two-hybrid library CCmax. The conditions noted are these: mean of both orientations.

The target in assay [15] is T15, 4H278-AA.
T15 chain: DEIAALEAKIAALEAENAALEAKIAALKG
The experiment in a line: two-hybrid library CCmax. The conditions noted are these: mean of both orientations.

Assay [16] deals with T16, 4H2873-AA.
T16 chain: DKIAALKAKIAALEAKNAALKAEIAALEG
The experiment in a line: two-hybrid library CCmax. The conditions noted are these: mean of both orientations.

Assay [17] concerns the target T17, 4H2985-AA.
T17 chain: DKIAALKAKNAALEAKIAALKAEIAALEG
The experiment in a line: two-hybrid library CCmax. The conditions noted are these: mean of both orientations.

In assay [18] the target is T18, 4H3134-AA.
T18 chain: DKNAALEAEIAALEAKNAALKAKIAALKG
The experiment in a line: two-hybrid library CCmax. The conditions noted are these: mean of both orientations.

For assay [19], the target named is T19, 4H3409-AA.
T19 chain: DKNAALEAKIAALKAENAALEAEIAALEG
The experiment in a line: two-hybrid library CCmax. The conditions noted are these: mean of both orientations.

The target in assay [20] is T20, 4H3625-AA.
T20 chain: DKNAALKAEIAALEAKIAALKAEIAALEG
Nature of the assay: two-hybrid library CCmax. The conditions noted are these: mean of both orientations.

Assay [21] has as its target T21, 4H390-AA.
T21 chain: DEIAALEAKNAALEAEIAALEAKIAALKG
The experiment in a line: two-hybrid library CCmax. The conditions noted are these: mean of both orientations.

Assay [22] concerns the target T22, 4H3940-AA.
T22 chain: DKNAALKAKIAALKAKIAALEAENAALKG
Nature of the assay: two-hybrid library CCmax. The conditions noted are these: mean of both orientations.

The target in assay [23] is T23, 4H510-AA.
T23 chain: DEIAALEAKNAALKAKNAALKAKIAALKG
The experiment in a line: two-hybrid library CCmax. The conditions noted are these: mean of both orientations.

Assay [24] has as its target T24, 4H775-AA.
T24 chain: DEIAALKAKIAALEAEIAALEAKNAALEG
The experiment in a line: two-hybrid library CCmax. The conditions noted are these: mean of both orientations.

For assay [25], the target named is T25, 4H816-AA.
T25 chain: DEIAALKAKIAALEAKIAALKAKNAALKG
The experiment in a line: two-hybrid library CCmax. The conditions noted are these: mean of both orientations.

The target in assay [26] is T26, 4H87-AA.
T26 chain: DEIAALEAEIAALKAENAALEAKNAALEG
Nature of the assay: two-hybrid library CCmax. The conditions noted are these: mean of both orientations.

For assay [27], the target named is T27, P7A-bP.
T27 chain: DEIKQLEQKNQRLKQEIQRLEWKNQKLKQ
Nature of the assay: two-hybrid library CCNG1.

For assay [28], the target named is T28, P8A-bP.
T28 chain: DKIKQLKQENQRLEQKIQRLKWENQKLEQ
Nature of the assay: two-hybrid library CCNG1.

Assay [29] concerns the target T29, P9A-bP.
T29 chain: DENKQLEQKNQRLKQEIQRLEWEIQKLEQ
The experiment in a line: two-hybrid library CCNG1.

The target in assay [30] is T30, 4H2692-bN.
T30 chain: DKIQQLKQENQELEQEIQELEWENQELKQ
Nature of the assay: two-hybrid library CCNG1.

Assay [31] deals with T31, 4H2717-bN.
T31 chain: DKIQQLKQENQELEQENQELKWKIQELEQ
Nature of the assay: two-hybrid library CCNG1.

In assay [32] the target is T32, 4H2839-bN.
T32 chain: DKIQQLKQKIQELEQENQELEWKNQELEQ
The experiment in a line: two-hybrid library CCNG1.

Assay [33] addresses T33, 4H2915-bN.
T33 chain: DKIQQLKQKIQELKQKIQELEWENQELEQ
The experiment in a line: two-hybrid library CCNG1.

The target in assay [34] is T34, 4H3057-bN.
T34 chain: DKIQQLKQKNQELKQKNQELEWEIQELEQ
The experiment in a line: two-hybrid library CCNG1.

The target in assay [35] is T35, 4H319-bN.
T35 chain: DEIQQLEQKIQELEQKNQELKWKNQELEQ
Nature of the assay: two-hybrid library CCNG1.

Assay [36] addresses T36, 4H3277-bN.
T36 chain: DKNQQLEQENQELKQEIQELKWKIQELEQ
The experiment in a line: two-hybrid library CCNG1.

For assay [37], the target named is T37, 4H348-bN.
T37 chain: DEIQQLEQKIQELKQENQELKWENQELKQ
The experiment in a line: two-hybrid library CCNG1.

The target of assay [38] is T38, 4H40-bN.
T38 chain: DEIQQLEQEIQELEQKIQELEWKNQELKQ
Nature of the assay: two-hybrid library CCNG1.

The target of assay [39] is T39, 4H477-bN.
T39 chain: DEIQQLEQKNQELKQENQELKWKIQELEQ
Nature of the assay: two-hybrid library CCNG1.

In assay [40] the target is T40, 4H492-bN.
T40 chain: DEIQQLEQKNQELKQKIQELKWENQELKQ
The experiment in a line: two-hybrid library CCNG1.

Assay [41] concerns the target T41, 4H741-bN.
T41 chain: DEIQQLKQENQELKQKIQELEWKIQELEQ
Nature of the assay: two-hybrid library CCNG1.

Assay [42] has as its target T42, 4H918-bH.
T42 chain: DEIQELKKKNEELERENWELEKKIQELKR
Nature of the assay: two-hybrid library CCNG1.

On to ENARLEEKIRQLKQKNSQLKEEIQQLEYGC [P5SC2], for which the interaction score in assay [1] was -2.86; in [2], -2.94; in [3], 0.316; in assay [4] it was 0.408; in [5], 0.225; in assay [6] it was 0.24. In addition, the interaction score is -2.39 in [7]; -2.77 in [8]; -1.1 in assay [9]; -2.45 in assay [10]; -2.39 in assay [11].
DKIAALKAEIAALKAKNAALKAKNAALEG [4H2687-AA]: the interaction score in assay [12] was -0.386; in assay [13] it was -1.7; in [14], -1.78; in assay [15], 1.88; in assay [16], -1.74; in [17], -1.59. For the same molecule, the interaction score in [18] was -1.43; in assay [19], -0.818; in assay [20] it was -0.539; in assay [21], -1.43; in assay [22], -1.7; in assay [23], -1.76. For the same molecule, the results for the interaction score in [24], in [25] and in assay [26] were -0.777, -1.46 and 1.53, respectively.
For DEIKQLEQKNQRLKQEIQRLEWKNQKLKQ [P7A-bP], the results for the interaction score in [27], in assay [28] and in assay [29] were -1.33, 1.1 and -0.571, respectively.
In the case of DKIQQLKQENQELEQEIQELEWENQELKQ [4H2692-bN], the interaction score was 0.234 in assay [30]; -0.423 in [31]; -0.832 in assay [32]; -0.419 in assay [33]; 0.294 in assay [34]; -0.482 in assay [35]. The interaction score in assay [36] was -0.49; in assay [37], 0.502; in assay [38], -0.333; in assay [39], -0.405; in assay [40] it was 1.22; in assay [41], -0.795. Further, the interaction score in assay [42] was 1.17.
Turning to DKIKQLKQENQRLEQKIQRLKWENQKLEQ [P8A-bP], the interaction score in assay [28] was -0.396; in [29], 0.
